Test results published in PMC5043019, “Unique and Universal Features of Epsilonproteobacterial Origins of Chromosome Replication and DnaA-DnaA Box Interactions” (Frontiers in Microbiology, 2016).

B1: Wolinella succinogenes DnaA protein (natural protein, W. succinogenes DSM 1740, UniProt Q7MSY2 1-437, looked up)
chain: MLGDTTLKQLKDEISTLEYERYIKQLRYDEEASRTDLAVYIAPNQFIANWVKTKYGERLAHLFELSTGIRPKIEIRLGSLKKDVKSSSPKAGVSKGQKSTILNPSFTFDSFVVGNSNRFAYEVSQNVAKKQGIAYNPLLIYGGTGLGKTHLLNSIGNYNVAKGKSVIYVTSEQFLNDYLYHIRNNTMDRFRDKYRACDYLLIDDVQFFGGKPQIQEEFFHTFNELHNKNKQIVLTSDKTPKQIAGLEERLKSRFEWGMVSDIQPPELETKINIIKKKCEFDGIYLSNEIISYIATNMDNNIREIEGIIIKLNAYANLMNQEITLQFAKNVLKEQIKEERENITLENIIEVVSKELNVKPAEIKSKGRSKNIANARRIVIFLARTLTPNSMPSLAQFFGMKDHSSVSKAMKTVKTEIEEDANFKMVIEELKNKIKSRN
notes: chromosomal replication initiator protein DnaA of Wolinella succinogenes DSM 1740, cloned from genomic DNA; Supplemented with 3 mM ATP for electron microscopy; also called W. succinogenes DnaA; source: purified as described in (Zawilak-Pawlik et al., 2006) with minor modifications (Supplementary Materials)
B2: Arcobacter butzleri DnaA protein (natural protein, A. butzleri RM4018, UniProt A8EQT0 1-438, looked up)
chain: MTTKEFLTIIQKEANQIDYERYLKQLVYKKVSSDNKIAIFEVNNKYIASWIKSKFTNLIQHCFEIYDGSKPTIEIKLSNEKKSKKEILKEQTQNESTESTILNPSYTFDSFVVGPSNQMAYNASLAVANKPGIQYNPLFIYGGTGLGKTHLLQAVGNHAIEKGNTVIYVTIEQFMNDFTFSIKNKNMEHFRNKYRKCDVLLIDDIQFLSGKEQTQEEFFHTFNELHNAKKQIVMTSDRLPSQIAGLVDRLKSRFEWGLTADVQIPGLETKIAIIEKKSELNGICLSREIINFIATNLDNSIREIEGVLIRINASASLLNQEITLPMVQGLLKEQIKETKENVKLPDIINIVANQLNIKPSDIKSKKRTATVANARRIVIYLVRELTHNSMPDIAKFLGMKDHSAISHNIKKANELIEKDENFKLIIENLKNKIINSRE
notes: chromosomal replication initiator protein DnaA of Arcobacter butzleri RM4018, cloned from genomic DNA; Supplemented with 3 mM ATP for electron microscopy; also called A. butzleri DnaA; source: purified as described in (Zawilak-Pawlik et al., 2006) with minor modifications (Supplementary Materials)

Target: the molecule itself
Experiment: electron microscopy; purified DnaA (3 mM ATP) incubated with supercoiled plasmids carrying oriC1-dnaA-oriC2 (pAbori1ori2, pSdori1ori2, pWsoriori2); complexes stabilised by glutaraldehyde cross-linking, linearised with ScaI; looped DNA with one protein complex joining oriC1 and oriC2; DnaA molecules are DNA-bound

Row | Protein | binding result
1 | B1 | binds
2 | B2 | binds
